The values that follow come from patent US20230050148A1, “TGF-BETA INHIBITORS AND USE THEREOF” (SCHOLAR ROCK, INC., priority 2020, published 2023).

The conditions of data set [1]: mouse, in vivo, iv.
Protocol: Pharmacokinetics studies were conducted in female C57BL/6 mice, SD rats, and cynomolgus monkeys. […] A non-GLP single-dose PK study was performed in C57BL/6 mice (10-11 weeks) at Gateway Pharmacology Laboratories in Chesterfield, Mo. Additional pharmacokinetic and toxicology studies were conducted in naive young adult Sprague Dawley rats (7-10 weeks) and cynomolgus monkeys (2-4 years).
The lower limit of quantitation (LLOQ) for the non-GLP assays were 125, 125, and 250 ng/mL for the mouse, rat, and cynomolgus monkey, respectively; and 75 ng/mL for the optimized and validated GLP assays (rat and monkey). The absorbance-versus concentration relationship was regressed using a 4-parameter logistic curve fit (with a weighting factor of 1/Y2 for the validated assays to support the toxicokinetic studies), and concentrations were calculated using GraphPad Prism or Watson LIMS (Thermo, Pennsylvania, USA) data reduction software.
Female mice were group housed (3-5 mice/cage) in polycarbonate cages containing appropriate bedding and water valves in a controlled environment (17.8-26.7° C.; 30-70% relative humidity; 12-hour light and dark cycles) and were offered standard rodent chow (PicoLab Rodent Diet 20) and tap water ad libitum. Mice were randomly assigned to treatment groups for all studies.
PK parameters were calculated in Phoenix® WinNonlin® (Certara USA Inc.) from the concentration-time data using a noncompartmental analysis method with intravenous (IV) bolus input. Nominal doses and sampling times were used. […] Area under the concentration time curve (AUC) was computed using the linear trapezoidal approximation method. Terminal half-life (t1/2) was estimated by log-linear regression of the terminal phase of the mean concentration versus time profiles. At least 3 points clearly visible in the terminal phase, an r^2 value of at least 0.8, and time interval of at least 3 half-lives (in the GLP toxicity studies only) were required to characterize half-life.
Another data set relates to Cloudman S91 tumors. Nature of the data set: Cloudman S91 melanoma model. Format: in vivo, DBA/2 mouse. As to conditions: dose range 3, 10 and 30 mg/kg. How it is done:
Clone M3 [Cloudman S91 melanoma] (ATCC® CCL-53.1™) cells were obtained from the American Type Culture Collection (ATCC), and were maintained at CR Discovery Services as exponentially growing suspension cultures in Kaighn's modified Ham's F12 Medium supplemented with 2.5% fetal bovine serum, 15% horse serum, 2 mM glutamine, 100 units/mL penicillin G sodium, 100 μg/mL streptomycin sulfate and 25 μg/mL gentamicin. The tumor cells were grown in tissue culture flasks in a humidified incubator at 37° C., in an atmosphere of 5% CO2 and 95% air.
When tumors reached a volume of 125-175 mm^3 mice were randomized into groups of 12 with identical mean tumor volumes and dosing began.
Group 1 received anti-PD-1 antibody only. […] An untreated control was used, data not shown.
Percent tumor growth delay (% TGD) is defined as the increase in the median time to endpoint in a treatment group compared to the untreated control, expressed as a percentage of the median time to endpoint (TTE) of the control: • T=median TTE for treatment • C=median TTE for control
Results are summarized below (see FIGS. 9, 11 & 12).
(§1) All antibodies were dosed intraperitoneally.

Data set [2] can be described thus: first-in-human dose selection (allometric scaling, PAD, safety factors). The settings on record: S91, MBT-2, EMT-6 models, with anti-PD-1. How it is done:
In vivo pharmacology data was utilized to predict the human pharmacological active dose (PAD) and recommended the FIH dose. In addition, safety margins were determined between the predicted exposure at the recommended FIH dose and the exposure achieved at the NOAELs in toxicology studies.

A further data set has as its system MBT2 tumors. Nature of the data set: MBT2 syngeneic bladder cancer model, efficacy. Format: in vivo, C3H/HeN mouse. How it is done:
Group 1 received anti-PD-1 antibody only. […] An untreated control was used, not shown.
as §1

Another data set concerns EMT6 tumors. Nature of the data set: EMT-6 syngeneic breast carcinoma model. The settings on record: dose 10 mg/kg. Format: in vivo, BALB/c mouse. How it is done:
EMT6 tumors were implanted subcutaneously. Treatment began when EMT6 tumors reached 30-80 mm^3. Anti-PD-1 was dosed at 10 mkg twice weekly. […] Anti-TGFβ3 neutralizing antibody was dosed at 30 mkg once weekly.
Responders are defined as those achieving tumor size of <25% of the endpoint volume at study end.
as §1

In data set [3] the test system is intratumoral immune cells in MBT2 tumors. The data set is described as follows: MBT2 tumor immune contexture (flow cytometry, IHC, qPCR). The settings on record: MBT-2. In kind it is in vivo, mouse. From the text: To study the immune effects of anti-PD-1 or Ab6-mIgG1 treatment as single agents or in combination, MBT-2 tumors were harvested from mice 10 days after treatment initiation and then subjected to immunohistochemical and flow cytometry analyses of select immune cell markers. […] The relevance of this increase in Treg cells is unclear given the significant anti-tumor effects observed with combination treatment. […] This appears to be due to selective reduction in CD11 b+CD206+ and CD11 b+Gr1+ subpopulations, which correspond to immunosuppressive M2-like macrophages and myeloid-derived suppressor cells (MDSC), respectively. Collectively, the representation of these two populations of cells is reduced from an average of 47% of the CD45+ cell population to 14% after combination treatment (FIG. 28B).
Each study group contained 12 mice with MBT2 tumors as described herein. […]
Flow cytometric analysis: Tumor-associated immune cell subsets were also analyzed by tumor flow cytometry in MBT-2 tumors. […] Flow cytometry was performed on a Attune NxT (ThermoFisher) and analyzed with FlowJo (BD Bioscience).
For immunohistochemical analysis, tumors from six animals were cut in halves and fixed. […] FIG. 30E provides the quantitation of the IHC data, shown as % of CD8-positive cells of total nuclei. […]
A general note: In flow cytometry, cells or beads pass a laser one at a time.

A further data set addresses T1, human LTBP3-ProTGFb1 (Homo sapiens, UniProt P01137).
T1 construct: made in house; host or cells: Expi293F cells, co-transfected with pTT5 plasmids
Nature of the data set: SPR (Biacore 8K) Fab binding kinetics. The settings on record: Fab 0.62-10 nM, 1:1 binding model. The protocol: (§2) Briefly, the binding kinetics were evaluated by surface plasmon resonance using Biacore 8K (GE Healthcare). A Biotin CAP sensor chip was used to capture the biotinylated antigens. Fabs at various concentrations (0 nM, 0.62 nM, 1.25 nM, 2.5 nM, 5 nM and 10 nM) were injected over the captured antigens. Multi-cycle kinetics was employed where each analyte concentration was injected in a separate cycle and the sensor chip surface was regenerated after each cycle. All the assays were carried out in freshly prepared 1×HBS-EP+ buffer (10 mM HEPES, 150 mM NaCl, 3 mM EDTA, 0.05% Tween20, pH 7.4). Data for all the analyte concentrations for each interaction were fit globally to a 1:1 binding model to obtain the kinetic parameters. The Sensorgram for 0 nM analyte concentration was used as reference.
(§3) Binding kinetics was evaluated by surface plasmon resonance using a Biacore 8K (GE) instrument. Biotinylated antigens were captured on a Biotin CAP chip and the Fab fragments of the antibodies were used as analytes. Sensorgrams for Fab binding at variable concentrations (0.6-10 nM) were globally fit to obtain the kinetic parameters. Binding kinetics for the Fabs were evaluated against each of the four human antigens, LTBP1-ProTGFb1, LTBP3-ProTGFb1, GARP-ProTGFb1, and LRRC33-ProTGFb1.
(SPR reads the build-up and loss of mass on a sensor chip optically.)

Another data set concerns the target T2, human GARP-ProTGFb1 (Homo sapiens, UniProt P01137).
T2 construct: made in house
The data set is described as follows: SPR (Biacore 8K) Fab binding kinetics. The settings on record: Fab 0.62-10 nM, 1:1 binding model. The protocol: as §2, §3

The next data set deals with T3, human LTBP1-ProTGFb1 (Homo sapiens, UniProt P01137).
T3 construct: made in house; host or cells: Expi293F cells, co-transfected with pTT5 plasmids
T3 sequence (P01137 30-390): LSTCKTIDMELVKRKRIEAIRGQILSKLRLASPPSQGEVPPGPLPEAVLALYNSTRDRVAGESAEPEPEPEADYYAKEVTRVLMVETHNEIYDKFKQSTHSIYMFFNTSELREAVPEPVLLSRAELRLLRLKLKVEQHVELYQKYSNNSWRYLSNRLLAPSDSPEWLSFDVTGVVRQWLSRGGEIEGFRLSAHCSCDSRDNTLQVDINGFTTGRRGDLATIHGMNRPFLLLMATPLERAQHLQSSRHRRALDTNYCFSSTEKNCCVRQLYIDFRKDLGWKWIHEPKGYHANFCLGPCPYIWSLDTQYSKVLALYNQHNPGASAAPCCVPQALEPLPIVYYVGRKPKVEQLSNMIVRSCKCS
T3 sequence (Q14766 873-1507 partner): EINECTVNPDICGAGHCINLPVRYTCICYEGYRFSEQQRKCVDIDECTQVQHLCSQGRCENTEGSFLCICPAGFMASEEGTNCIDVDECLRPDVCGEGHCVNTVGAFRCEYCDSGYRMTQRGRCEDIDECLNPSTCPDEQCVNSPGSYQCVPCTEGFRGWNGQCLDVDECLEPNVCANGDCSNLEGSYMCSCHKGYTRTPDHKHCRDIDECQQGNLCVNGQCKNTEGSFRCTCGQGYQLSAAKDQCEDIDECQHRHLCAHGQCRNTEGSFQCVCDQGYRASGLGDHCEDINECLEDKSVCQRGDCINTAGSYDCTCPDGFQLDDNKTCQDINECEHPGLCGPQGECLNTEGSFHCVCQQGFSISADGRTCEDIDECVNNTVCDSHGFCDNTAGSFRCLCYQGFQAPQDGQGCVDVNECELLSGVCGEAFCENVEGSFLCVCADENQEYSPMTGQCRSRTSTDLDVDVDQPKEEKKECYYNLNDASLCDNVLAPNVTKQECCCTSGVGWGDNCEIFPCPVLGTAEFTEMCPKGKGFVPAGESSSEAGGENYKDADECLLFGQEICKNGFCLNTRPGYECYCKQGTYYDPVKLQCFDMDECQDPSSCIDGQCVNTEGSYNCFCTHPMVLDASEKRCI
Nature of the data set: SPR (Biacore 8K) Fab binding kinetics. As to conditions: Fab 0.62-10 nM, 1:1 binding model. How it is done: as §2, §3

The target in a further data set is T4, human LRRC33-ProTGFb1 (Homo sapiens, UniProt P01137).
T4 construct: made in house
T4 sequence (P01137 30-390): as the sequence (P01137 30-390) above
T4 sequence (Q86YC3 19-650 partner limits assumed): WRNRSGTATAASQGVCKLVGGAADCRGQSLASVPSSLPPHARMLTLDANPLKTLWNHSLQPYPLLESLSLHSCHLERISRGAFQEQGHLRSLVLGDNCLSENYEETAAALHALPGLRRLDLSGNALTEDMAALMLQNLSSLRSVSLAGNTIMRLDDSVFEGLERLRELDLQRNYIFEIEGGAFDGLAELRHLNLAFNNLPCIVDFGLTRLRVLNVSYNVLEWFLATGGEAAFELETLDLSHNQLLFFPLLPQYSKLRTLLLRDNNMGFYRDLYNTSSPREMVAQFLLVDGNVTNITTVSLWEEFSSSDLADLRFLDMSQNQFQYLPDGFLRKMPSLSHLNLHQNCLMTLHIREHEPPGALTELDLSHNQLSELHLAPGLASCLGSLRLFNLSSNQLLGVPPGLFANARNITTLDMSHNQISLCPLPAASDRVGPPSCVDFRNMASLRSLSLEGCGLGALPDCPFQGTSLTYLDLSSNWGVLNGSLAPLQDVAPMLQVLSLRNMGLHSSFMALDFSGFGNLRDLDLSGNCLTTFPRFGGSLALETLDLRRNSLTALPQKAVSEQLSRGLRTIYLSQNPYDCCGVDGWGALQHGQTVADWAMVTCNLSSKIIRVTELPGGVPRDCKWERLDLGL
The data set is described as follows: SPR (Biacore 8K) Fab binding kinetics. As to conditions: Fab 0.62-10 nM, 1:1 binding model. How it is done: as §2, §3

The target in a further data set is T5, proTGFβ1 / latent TGFβ1 (Homo sapiens, UniProt P01137, C33S).
T5 construct: The small latent TGFβ complexes were expressed with an N-terminal His-tag; His-tag (N); made in house; host or cells: Expi293F cells
T5 sequence (P01137 with tags, fused parts or gaps C33S): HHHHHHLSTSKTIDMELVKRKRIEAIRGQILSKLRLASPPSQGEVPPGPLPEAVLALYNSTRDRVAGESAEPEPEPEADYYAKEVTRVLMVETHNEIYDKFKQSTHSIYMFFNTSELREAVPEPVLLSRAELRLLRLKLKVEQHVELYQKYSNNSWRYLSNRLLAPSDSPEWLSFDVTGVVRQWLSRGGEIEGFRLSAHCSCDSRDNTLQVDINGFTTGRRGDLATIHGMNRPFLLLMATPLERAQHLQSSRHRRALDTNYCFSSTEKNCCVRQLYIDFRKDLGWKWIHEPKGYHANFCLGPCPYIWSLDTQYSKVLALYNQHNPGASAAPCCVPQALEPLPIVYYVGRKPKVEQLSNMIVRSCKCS
The data set is described as follows: HDX-MS epitope mapping. As to conditions: Fab binding. From the text: To gain initial insights into the inhibitory mechanism of action for the isoform-selective inhibitors of TGFβ1 activation, we performed Hydrogen-Deuterium Exchange Mass Spectrometry (H/DX-MS) analysis to identify possible sites of latent TGFβ1 interaction with the antibody. Hydrogen/Deuterium exchange mass spectrometry (HDX-MS) is a widely used technique for exploring protein conformation in solution. HDX-MS methodology is described in Wei et al., Drug Discov Today. 2014 January; 19(1): 95-102, incorporated by reference in its entirety herein. Briefly, HDX-MS relies on the exchange of the protein backbone amide hydrogens with deuterium in solution. […]
Accurate mass and collision-induced dissociation in data-independent acquisition mode (MSE) and ProteinLynx Global Server (PLGS) 3.0 software (Waters Corp., Milford, Mass.) were used to determine the peptic peptides in the undeuterated protein samples analyzed on the same UPLC-ESI-QToF system used for H/DX-MS experiments. […] The relative deuterium incorporation of each peptide was determined by subtracting the weight-averaged centroid mass of the isotopic distribution of undeuterated control sample from that of the weight-averaged centroid mass of the isotopic distribution of deuterium-labeled samples at each labeling time point. […]

Like-named read-outs stand apart in the source and are kept apart here.

T1 sequence (P01137 30-390): as the sequence (P01137 30-390) above
T1 sequence (Q9NS15 866-1039 partner limits assumed): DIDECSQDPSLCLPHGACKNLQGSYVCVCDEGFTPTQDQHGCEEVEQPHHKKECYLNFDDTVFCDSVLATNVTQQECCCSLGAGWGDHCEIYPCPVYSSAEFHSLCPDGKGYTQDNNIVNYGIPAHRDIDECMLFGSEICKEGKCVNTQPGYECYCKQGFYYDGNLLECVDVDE
T2 sequence (P01137 30-390): as the sequence (P01137 30-390) above
T2 sequence (Q14392 20-627 partner limits assumed): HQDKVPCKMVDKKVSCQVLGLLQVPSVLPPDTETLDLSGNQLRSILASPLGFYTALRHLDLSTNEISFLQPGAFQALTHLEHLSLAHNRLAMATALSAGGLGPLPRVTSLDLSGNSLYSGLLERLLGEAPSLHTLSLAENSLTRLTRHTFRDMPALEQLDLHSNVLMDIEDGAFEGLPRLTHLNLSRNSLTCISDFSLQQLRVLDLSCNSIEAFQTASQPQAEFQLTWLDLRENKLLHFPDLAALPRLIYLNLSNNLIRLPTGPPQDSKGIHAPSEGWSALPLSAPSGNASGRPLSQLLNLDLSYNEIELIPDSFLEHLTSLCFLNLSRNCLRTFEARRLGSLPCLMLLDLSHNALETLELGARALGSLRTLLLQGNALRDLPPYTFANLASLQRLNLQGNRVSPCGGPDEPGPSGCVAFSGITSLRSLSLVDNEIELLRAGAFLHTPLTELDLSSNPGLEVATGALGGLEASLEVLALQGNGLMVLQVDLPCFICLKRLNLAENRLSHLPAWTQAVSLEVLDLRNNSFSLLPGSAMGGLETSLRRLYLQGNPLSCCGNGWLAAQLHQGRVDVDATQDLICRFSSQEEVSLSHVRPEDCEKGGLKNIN

B1: Ab6-mIgG1: chimeric antibody with the human V domains of Ab6 fused to mouse IgG1/kappa constant domains (protein)
heavy chain: EVQLVESGGGLVQPGGSLRLSCTASGFTFSSFSMDWVRQAPGKGLEWVSYISPSADTIYYADSVKGRFTISRDNAKNTLYLQMNSLRAEDTAVYYCARGVLDYGDMLMPWGQGTLVTVSS
light chain: DIQMTQSPSSLSASVGDRVTITCQASQDITNYLNWYQQKPGKAPKLLIYDASNLETGVPSRFSGSGSGTDFTFTISSLQPEDIATYYCQQADNHPPWTFGGGTKVEIK
With B1, in [1], the “Cmax (mean, range over dose groups)” value is 7400 to 664000 ng/mL. The AUC0-inf was 4890 µg·h/mL in data set [1] (3 mg/kg), 17800 µg·h/mL in data set [1] (10 mg/kg) and 64200 µg·h/mL in data set [1] (30 mg/kg). Further, the values for the AUClast in data set [1] (3 mg/kg), in data set [1] (10 mg/kg) and in [1] (30 mg/kg) were 4710 µg·h/mL, 17400 µg·h/mL and 64100 µg·h/mL, respectively. The PAD with Cloudman S91 tumors worked out at 3 mg/kg; with MBT2 tumors (MBT-2, dose range 3 and 10 mg/kg), 10 mg/kg; with EMT6 tumors it was 10 mg/kg. Besides, the “pharmacologically active dose (range)” value in data set [2] is 3-10 mg/kg. In addition, the tumor-free survivors with MBT2 tumors (MBT2, 3 mg/kg per week + anti-PD-1) came to 21%; with MBT2 tumors (MBT2, 10 mg/kg per week + anti-PD-1), 36%. Also, the “pSmad3 staining in tumor vascular endothelium” value in data set [3] was “much diminished”.

B2: Ab6 Fab: Fab fragment of Ab6 used as analyte in SPR and in HDX-MS (antibody, V domains shown)
VH: B1 heavy chain
VL: B1 light chain
A word on the koff: it is a measure of how fast the partners let go of each other. For orientation: kon means a measure of how fast the partners come together. Low values mean slow association, high ones fast association. Turning to B2, the koff with human LTBP3-ProTGFb1 is 0.000831 s⁻¹; with human GARP-ProTGFb1, 0.000218 s⁻¹; with human LTBP1-ProTGFb1, 0.000255 s⁻¹; with human LRRC33-ProTGFb1, 0.000123 s⁻¹. For the same molecule, the kon was 1.7e+06 M⁻¹ s⁻¹ with human LTBP3-ProTGFb1, 2.1e+06 M⁻¹ s⁻¹ with human GARP-ProTGFb1, 2.05e+06 M⁻¹ s⁻¹ in the data set with human LTBP1-ProTGFb1 and 845000 M⁻¹ s⁻¹ with human LRRC33-ProTGFb1. The “regions on proTGFβ1 strongly protected from deuterium exchange” value with proTGFβ1 / latent TGFβ1 is recorded as “three binding regions”.
